# Assays:
# [1] = target: GST-syntaxin 3B (cytoplasmic domain without the transmembrane domain, residues 2-264), wild type (mouse); assay: pull-down
# [2] = target: GST-syntaxin 3B T14E (phosphomimetic mutant, without the transmembrane domain) (mouse); assay: pull-down
substance,measurement,setting,value
His6-SNAP-25b (recombinant) (from UniProt P60879-1 1-206) (natural protein),"amount of bound SNAP-25, normalized to wild type",[1],100%
same,"amount of bound SNAP-25, normalized to wild type",[2],180%

# — paper PMC4066811
